# Measurements as given in publication PMC5572259, “The C-terminal Six Amino Acids of the FNT Channel FocA Are Required for Formate Translocation But Not Homopentamer Integrity” (Frontiers in Microbiology, 2017).
# Several values for one entry are separate records, joined by “and”; a condition that tells them apart may be missing. Equal values may be shown once.
# B1: FocA5R280 (FocA truncation variant ending with R280, lacking E281, N282, D283, H284 and H285) (domain or fragment, Escherichia coli, UniProt P0AC23 1-280, looked up)
# chain: MKADNPFDLLLPAAMAKVAEEAGVYKATKHPLKTFYLAITAGVFISIAFVFYITATTGTGTMPFGMAKLVGGICFSLGLILCVVCGADLFTSTVLIVVAKASGRITWGQLAKNWLNVYFGNLVGALLFVLLMWLSGEYMTANGQWGLNVLQTADHKVHHTFIEAVCLGILANLMVCLAVWMSYSGRSLMDKAFIMVLPVAMFVASGFEHSIANMFMIPMGIVIRDFASPEFWTAVGSAPENFSHLTVMNFITDNLIPVTIGNIIGGGLLVGLTYWVIYLR
# notes: FocA, Escherichia coli, stop codon at codon 281 (lacking E281, N282, D283, H284 and H285); also called FocAR280; source: E. coli BL21(DE3) with pfocA5R280, membrane fraction solubilised with DDM, purified (Strep-Tactin-Sepharose); not shown: Strep-tag II, N-terminal, kept
# B2: FocA5N282 (FocA truncation variant ending with N282, lacking D283, H284 and H285) (domain or fragment, Escherichia coli, UniProt P0AC23 1-282, looked up)
# chain: MKADNPFDLLLPAAMAKVAEEAGVYKATKHPLKTFYLAITAGVFISIAFVFYITATTGTGTMPFGMAKLVGGICFSLGLILCVVCGADLFTSTVLIVVAKASGRITWGQLAKNWLNVYFGNLVGALLFVLLMWLSGEYMTANGQWGLNVLQTADHKVHHTFIEAVCLGILANLMVCLAVWMSYSGRSLMDKAFIMVLPVAMFVASGFEHSIANMFMIPMGIVIRDFASPEFWTAVGSAPENFSHLTVMNFITDNLIPVTIGNIIGGGLLVGLTYWVIYLREN
# notes: FocA, Escherichia coli, stop codon at codon 283 (lacking D283, H284 and H285); source: E. coli BL21(DE3) with pfocA5N282, membrane fraction solubilised with DDM, purified (Strep-Tactin-Sepharose); not shown: Strep-tag II, N-terminal, kept
# B3: FocA5L279 (FocA truncation variant ending with L279, lacking R280, E281, N282, D283, H284 and H285) (domain or fragment, Escherichia coli, UniProt P0AC23 1-279, looked up)
# chain: MKADNPFDLLLPAAMAKVAEEAGVYKATKHPLKTFYLAITAGVFISIAFVFYITATTGTGTMPFGMAKLVGGICFSLGLILCVVCGADLFTSTVLIVVAKASGRITWGQLAKNWLNVYFGNLVGALLFVLLMWLSGEYMTANGQWGLNVLQTADHKVHHTFIEAVCLGILANLMVCLAVWMSYSGRSLMDKAFIMVLPVAMFVASGFEHSIANMFMIPMGIVIRDFASPEFWTAVGSAPENFSHLTVMNFITDNLIPVTIGNIIGGGLLVGLTYWVIYL
# notes: FocA, Escherichia coli, stop codon at codon 280 (lacking R280, E281, N282, D283, H284 and H285); also called FocAL279; source: E. coli BL21(DE3) with pfocAL279 (pfocA5L279), membrane fraction solubilised with DDM, purified (Strep-Tactin-Sepharose); not shown: Strep-tag II, N-terminal, kept
# B4: FocA5D283 (FocA truncation variant ending with D283, lacking H284 and H285) (domain or fragment, Escherichia coli, UniProt P0AC23 1-283, looked up)
# chain: MKADNPFDLLLPAAMAKVAEEAGVYKATKHPLKTFYLAITAGVFISIAFVFYITATTGTGTMPFGMAKLVGGICFSLGLILCVVCGADLFTSTVLIVVAKASGRITWGQLAKNWLNVYFGNLVGALLFVLLMWLSGEYMTANGQWGLNVLQTADHKVHHTFIEAVCLGILANLMVCLAVWMSYSGRSLMDKAFIMVLPVAMFVASGFEHSIANMFMIPMGIVIRDFASPEFWTAVGSAPENFSHLTVMNFITDNLIPVTIGNIIGGGLLVGLTYWVIYLREND
# notes: source: E. coli BL21(DE3) with pfocA5D283, membrane fraction solubilised with DDM, purified (Strep-Tactin-Sepharose); not shown: Strep-tag II, N-terminal, kept
# B5: FocA5H284 (FocA truncation variant ending with H284, lacking H285) (domain or fragment, Escherichia coli, UniProt P0AC23 1-284, looked up)
# chain: MKADNPFDLLLPAAMAKVAEEAGVYKATKHPLKTFYLAITAGVFISIAFVFYITATTGTGTMPFGMAKLVGGICFSLGLILCVVCGADLFTSTVLIVVAKASGRITWGQLAKNWLNVYFGNLVGALLFVLLMWLSGEYMTANGQWGLNVLQTADHKVHHTFIEAVCLGILANLMVCLAVWMSYSGRSLMDKAFIMVLPVAMFVASGFEHSIANMFMIPMGIVIRDFASPEFWTAVGSAPENFSHLTVMNFITDNLIPVTIGNIIGGGLLVGLTYWVIYLRENDH
# notes: FocA, Escherichia coli, stop codon at codon 285 (lacking H285); source: E. coli BL21(DE3) with pfocA5H284, membrane fraction solubilised with DDM, purified (Strep-Tactin-Sepharose); not shown: Strep-tag II, N-terminal, kept
# B6: N-terminally Strep-tagged FocA (native, full-length formate channel FocA of Escherichia coli) (natural protein, UniProt P0AC23 1-285, looked up)
# chain: MKADNPFDLLLPAAMAKVAEEAGVYKATKHPLKTFYLAITAGVFISIAFVFYITATTGTGTMPFGMAKLVGGICFSLGLILCVVCGADLFTSTVLIVVAKASGRITWGQLAKNWLNVYFGNLVGALLFVLLMWLSGEYMTANGQWGLNVLQTADHKVHHTFIEAVCLGILANLMVCLAVWMSYSGRSLMDKAFIMVLPVAMFVASGFEHSIANMFMIPMGIVIRDFASPEFWTAVGSAPENFSHLTVMNFITDNLIPVTIGNIIGGGLLVGLTYWVIYLRENDHH
# notes: Formate channel FocA, Escherichia coli, full length (ends with H285; C-terminal residues after R280 are ENDHH); Kept in 2 mM DDM after purification; also called FocA5; native FocA5; source: E. coli BL21(DE3) with pfocA5 (pASK-IBA5focA), membrane fraction solubilised with DDM, purified (Strep-Tactin-Sepharose); not shown: Strep-tag II, N-terminal, kept
# B7: FocA5E281 (FocA truncation variant ending with E281, lacking N282, D283, H284 and H285) (domain or fragment, Escherichia coli, UniProt P0AC23 1-281, looked up)
# chain: MKADNPFDLLLPAAMAKVAEEAGVYKATKHPLKTFYLAITAGVFISIAFVFYITATTGTGTMPFGMAKLVGGICFSLGLILCVVCGADLFTSTVLIVVAKASGRITWGQLAKNWLNVYFGNLVGALLFVLLMWLSGEYMTANGQWGLNVLQTADHKVHHTFIEAVCLGILANLMVCLAVWMSYSGRSLMDKAFIMVLPVAMFVASGFEHSIANMFMIPMGIVIRDFASPEFWTAVGSAPENFSHLTVMNFITDNLIPVTIGNIIGGGLLVGLTYWVIYLRE
# notes: source: E. coli BL21(DE3) with pfocA5E281, membrane fraction solubilised with DDM, purified (Strep-Tactin-Sepharose); not shown: Strep-tag II, N-terminal, kept
# Target: the molecule itself
# Test: native gel or EMSA; blue-native PAGE, 5-13.5% (w/v polyacrylamide) gradient gel, 5 ug of purified DDM-solubilised FocA variant per lane
row,Protein,stoichiometry N
1,B1,10 and 5
2,B2,10 and 5
3,B3,5 and 10
4,B4,5
5,B5,10 and 5
6,B6,5 and 10
7,B7,5
